How the values were obtained:
[1] = system: wild-type B-domain deleted FVIII (FVIII-WT)
[2] = system: FVIII-R336Q/R562Q (FVIII-QQ)
Chain of FVIII-R336Q/R562Q (FVIII-QQ) (chain, as listed by the source R336Q R562Q): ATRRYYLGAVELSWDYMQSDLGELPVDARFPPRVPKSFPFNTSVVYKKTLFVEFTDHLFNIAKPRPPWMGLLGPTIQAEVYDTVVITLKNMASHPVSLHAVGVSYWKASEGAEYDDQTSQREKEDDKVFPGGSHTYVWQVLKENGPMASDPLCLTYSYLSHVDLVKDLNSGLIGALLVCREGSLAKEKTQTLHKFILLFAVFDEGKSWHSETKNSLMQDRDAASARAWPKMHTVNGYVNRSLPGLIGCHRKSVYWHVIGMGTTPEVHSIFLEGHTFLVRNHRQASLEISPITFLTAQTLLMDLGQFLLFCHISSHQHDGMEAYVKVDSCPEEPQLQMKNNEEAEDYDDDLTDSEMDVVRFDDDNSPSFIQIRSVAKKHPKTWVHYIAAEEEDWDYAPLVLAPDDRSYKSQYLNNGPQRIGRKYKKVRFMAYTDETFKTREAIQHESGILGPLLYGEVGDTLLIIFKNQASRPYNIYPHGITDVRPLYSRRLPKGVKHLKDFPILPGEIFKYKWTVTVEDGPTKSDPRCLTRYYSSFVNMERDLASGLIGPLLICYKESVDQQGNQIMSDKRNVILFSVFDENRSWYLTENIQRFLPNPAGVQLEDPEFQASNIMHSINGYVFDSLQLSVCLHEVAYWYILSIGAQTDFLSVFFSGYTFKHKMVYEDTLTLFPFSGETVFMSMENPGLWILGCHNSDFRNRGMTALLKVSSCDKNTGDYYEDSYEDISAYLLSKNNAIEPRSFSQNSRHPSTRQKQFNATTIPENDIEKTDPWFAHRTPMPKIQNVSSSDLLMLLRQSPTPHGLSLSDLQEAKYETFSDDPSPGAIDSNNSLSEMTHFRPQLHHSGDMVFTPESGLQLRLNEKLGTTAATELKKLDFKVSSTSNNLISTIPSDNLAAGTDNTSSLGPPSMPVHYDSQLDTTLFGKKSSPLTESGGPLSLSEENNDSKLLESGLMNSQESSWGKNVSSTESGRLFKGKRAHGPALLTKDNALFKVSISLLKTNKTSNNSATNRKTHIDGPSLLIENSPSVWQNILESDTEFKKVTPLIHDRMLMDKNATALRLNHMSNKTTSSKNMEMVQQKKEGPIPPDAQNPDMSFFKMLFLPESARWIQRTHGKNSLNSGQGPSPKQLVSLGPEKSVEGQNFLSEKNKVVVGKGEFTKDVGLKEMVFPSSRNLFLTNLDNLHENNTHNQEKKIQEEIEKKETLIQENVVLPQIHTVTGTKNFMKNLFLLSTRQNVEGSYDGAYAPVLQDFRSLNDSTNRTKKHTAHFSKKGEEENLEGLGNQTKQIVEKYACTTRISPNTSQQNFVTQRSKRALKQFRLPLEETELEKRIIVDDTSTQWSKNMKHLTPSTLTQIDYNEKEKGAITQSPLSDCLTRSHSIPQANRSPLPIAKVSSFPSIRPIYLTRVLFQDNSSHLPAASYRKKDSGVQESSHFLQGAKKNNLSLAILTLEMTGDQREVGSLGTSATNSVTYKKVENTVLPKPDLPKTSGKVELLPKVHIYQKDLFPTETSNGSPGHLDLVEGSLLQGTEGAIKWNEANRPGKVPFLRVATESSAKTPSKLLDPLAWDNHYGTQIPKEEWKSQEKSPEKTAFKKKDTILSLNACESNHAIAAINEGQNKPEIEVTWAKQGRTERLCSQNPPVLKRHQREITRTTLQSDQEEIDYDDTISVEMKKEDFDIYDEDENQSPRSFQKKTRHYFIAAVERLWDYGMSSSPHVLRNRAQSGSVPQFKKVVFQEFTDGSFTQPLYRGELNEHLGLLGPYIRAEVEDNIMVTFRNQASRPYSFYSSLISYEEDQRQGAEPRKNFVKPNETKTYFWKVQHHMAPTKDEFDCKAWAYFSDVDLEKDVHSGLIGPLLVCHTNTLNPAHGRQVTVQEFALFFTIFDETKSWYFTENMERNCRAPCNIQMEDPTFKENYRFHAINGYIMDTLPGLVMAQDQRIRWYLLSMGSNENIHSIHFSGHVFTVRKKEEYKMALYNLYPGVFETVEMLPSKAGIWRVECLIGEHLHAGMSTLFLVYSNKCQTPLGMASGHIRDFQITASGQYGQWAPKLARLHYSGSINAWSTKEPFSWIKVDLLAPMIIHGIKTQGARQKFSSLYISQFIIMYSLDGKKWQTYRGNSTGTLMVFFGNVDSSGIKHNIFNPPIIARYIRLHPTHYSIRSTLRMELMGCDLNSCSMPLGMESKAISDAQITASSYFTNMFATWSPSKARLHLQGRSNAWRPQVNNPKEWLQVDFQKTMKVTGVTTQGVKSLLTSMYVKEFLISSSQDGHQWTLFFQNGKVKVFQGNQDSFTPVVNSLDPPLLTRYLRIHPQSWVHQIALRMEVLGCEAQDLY

Chain of wild-type B-domain deleted FVIII (FVIII-WT) (chain, as listed by the source, stated change not applied): as the sequence (chain, as listed by the source R336Q R562Q) above, with Q336R, Q562R counted along it
Chain of FVIII-R372Q (chain, as listed by the source R372Q): as the sequence (chain, as listed by the source R336Q R562Q) above, with Q336R, R372Q, Q562R counted along it

Row | Substance | SDS-PAGE of cleavage products after incubation with thrombin [1] | SDS-PAGE of cleavage products after incubation with thrombin [2] | western blot of reaction products after 30-minute incubation with APC (FVIII-R372Q) | loss of FVIII activity (intrinsic Xase assay) after 1-hour APC incubation [1] | residual FVIII activity (intrinsic Xase assay) after incubation with 6 nM APC and 100 nM protein S [1] | residual FVIII activity (intrinsic Xase assay) after 1-hour APC incubation [2] | residual FVIII activity (intrinsic Xase assay) after incubation with 6 nM APC and 100 nM protein S [2]
1 | thrombin | Thrombin cleaved both proteins to yield fragments representing cleavage at R1689 (A3-C1-C2; Mr=70,000) and R740/R372 (A1, Mr=50,000 and A2, Mr=43,000), corresponding to FVIIIa | Thrombin cleaved both proteins to yield fragments representing cleavage at R1689 (A3-C1-C2; Mr=70,000) and R740/R372 (A1, Mr=50,000 and A2, Mr=43,000), corresponding to FVIIIa | – | – | – | – | –
2 | activated protein C (APC) | – | – | incubating a FVIII-R372Q mutant with APC, which did not produce the A2 fragment | FVIII-WT lost approximately 75% activity after a 1-hour APC incubation | FVIII-WT lost nearly all function within 15 minutes of combined APC and PS incubation | the protein maintained >90% activity following a 1-hour APC incubation | combined PS and APC incubation also accelerated FVIII-QQ loss of function, albeit to a lesser extent than FVIII-WT
